This assay has as its target FLAG-TWEAKR (human).

Consider “M2 anti-FLAG monoclonal antibody cross-linked with goat anti-mouse IgG (tool reagent)”, for which the BrdU incorporation of transfected HUVEC came to 6 fold.

For the origin of these results see patent US20050208046A1.
